Reference: patent US6844486 (TEMASEK LIFE SCIENCES LABORATORY, dated 2005)

Target: T1, GAL4 DNA binding domain-NAC1 fusion, first 199 amino acids of NAC1 (plasmid pGBNAC1 1-199) (Arabidopsis thaliana)
T1 construct: Yeast two-hybrid bait used as the fixed partner for testing the deletions; also called pGBNACl1-199; 199 amino acid version
Assay: yeast two-hybrid in HF7c, HIS3 reporter
Excerpt: Two-hybrid analysis (Bartel et al., 1993; Fields and Song, 1989; Chevray and Nathans, 1992; Lee et al., 1995) was applied to dimerization analysis. The yeast strain HF7c (MATa ura3–52 his3–200 ade2–101 lys2–801 trp1–901 leu2–3,112 gal4–542 gal 80–538 LYS2::GAL1$UAS$-GAL1$TATA$-HIS3 URA3::GAL4_{17mers(x3)}-CyC1$TATA$-LacZ which contains the two reporter genes LacZ and HIS3 was used. Yeast cotransformation with plasmids carrying the different Gal4 DNA binding domain and the Gal4 activation domain fusion was performed by methods known to those of skill in the art. See, e.g., Burke and Olson, 1986; Rudolph et al., 1985; Sakai et al., 1984. Other conditions have been described in detail elsewhere and are well known to those of skill in the art. To corroborate the interaction between the two fusion proteins, â-galactosidase activity was assayed by a replica filter assay.

Row | binding result | Binder
1 | no binding | GAL4 activation domain-NAC1 fusion, first 142 amino acids of NAC1 (plasmid pGANAC1 1-142) (other, not shown: large carriers, Yeast two-hybrid prey) METEEEMKESSISMVEAKLPPGFRFHPKDDELVCDYLMRRSLHNNHRPPLVLIQVDLNKCEPWDIPKMACVGGKDWYFYSQRDRKYATGLRTNRATATGYWKATGKDRTILRKGKLVGMRKTLVFYQGRAPRGRKTDWVMHE
2 | no binding | GAL4 activation domain-NAC1 fusion, NAC1 amino acids 143 to the C-terminus (plasmid pGANAC1 143-324) (other, not shown: large carriers; small tags and cut ends, Yeast two-hybrid prey) FRLQGSHHPPNHSLSSPKEDWVLCRVFHKNTEGVICRDNMGSCFDETASASLPPLMDPYINFDQEPSSYLSDDHHYIINEHVPCFSNLSQNQTLNSNLTNSVSELKIPCKNPNPLFTGGSASATLTGLDSFCSSDQMVLRALLSQLTKIDGSLGPKESQSYGEGSSESLLTDIGIPSTVWNC
